Source: patent publication US20100129369A1 (Eli Lilly, published 2010)

How the values were obtained:
PlexinA2-ECD-Fc [1] = molecular target: T1, PlexinA2-ECD-Fc (human, UniProt O75051 35-1237); test: ELISA, coated ECD-Fc, antibody 0.010 ng/mL
T1 construct: extracellular domain; Bought reagent
T1 sequence (looked up): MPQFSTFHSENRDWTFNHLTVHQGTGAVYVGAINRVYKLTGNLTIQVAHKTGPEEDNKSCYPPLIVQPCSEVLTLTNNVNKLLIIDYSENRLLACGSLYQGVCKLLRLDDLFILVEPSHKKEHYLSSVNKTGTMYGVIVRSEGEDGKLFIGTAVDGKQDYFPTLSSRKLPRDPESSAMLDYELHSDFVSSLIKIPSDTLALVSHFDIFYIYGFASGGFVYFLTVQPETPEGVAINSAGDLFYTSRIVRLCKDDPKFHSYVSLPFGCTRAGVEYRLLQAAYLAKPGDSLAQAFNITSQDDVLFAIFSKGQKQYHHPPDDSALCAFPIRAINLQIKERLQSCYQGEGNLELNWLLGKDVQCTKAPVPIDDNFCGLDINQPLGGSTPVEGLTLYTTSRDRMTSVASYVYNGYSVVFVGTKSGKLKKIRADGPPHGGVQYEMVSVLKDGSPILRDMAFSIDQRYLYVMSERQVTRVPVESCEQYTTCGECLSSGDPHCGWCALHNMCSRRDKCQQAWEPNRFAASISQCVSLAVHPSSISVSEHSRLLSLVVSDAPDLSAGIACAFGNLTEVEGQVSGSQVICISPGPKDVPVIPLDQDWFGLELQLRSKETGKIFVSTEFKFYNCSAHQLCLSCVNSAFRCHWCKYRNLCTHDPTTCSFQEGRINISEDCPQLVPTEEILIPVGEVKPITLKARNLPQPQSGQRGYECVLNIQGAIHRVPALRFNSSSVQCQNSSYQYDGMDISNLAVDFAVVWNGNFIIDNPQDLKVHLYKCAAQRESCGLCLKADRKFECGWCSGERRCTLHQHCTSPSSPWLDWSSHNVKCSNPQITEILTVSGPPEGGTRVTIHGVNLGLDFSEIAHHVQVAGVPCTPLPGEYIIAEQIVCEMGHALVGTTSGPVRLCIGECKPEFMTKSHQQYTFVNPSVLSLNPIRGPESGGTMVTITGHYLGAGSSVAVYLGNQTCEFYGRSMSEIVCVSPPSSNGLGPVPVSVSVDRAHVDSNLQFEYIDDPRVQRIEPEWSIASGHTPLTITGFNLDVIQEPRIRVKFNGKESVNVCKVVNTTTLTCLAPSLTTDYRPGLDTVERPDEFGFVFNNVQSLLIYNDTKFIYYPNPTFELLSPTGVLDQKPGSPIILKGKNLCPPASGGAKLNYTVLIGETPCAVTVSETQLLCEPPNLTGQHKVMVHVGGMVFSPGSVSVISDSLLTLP
Protocol: (§1) Wells of 96-well EIA/RIA high binding plates (Costar, #2592) are coated with 100 μL of 1 μg/mL human c-Met extracellular domain (ECD)-Fc-Flis fusion (SEQ ID NO:72), RON-ECD-Fc (R&D Systems, #1947-MS), or PlexinA2-ECD-Fc (Abnova, Taipei, Taiwan #H00005362-P01) in coating buffer (BioFX Labs, # COAT-1000-01) overnight at 4° C. […] After the plates are washed, 100 μL/well of substrate solution (BioFx, #TMBW-1000-01) are added and the plates are incubated for 10 min. at room temperature. 100 μL/well of stop solution (BioFx, # LSTP-1000-01) are added to stop the reaction. The colorimetric signals are developed and read at 450 nm using a SpectraMax 190 plate reader (Molecular Devices, Sunnyvale, Calif.). c-Met antibody binding to c-Met, RON and PlexinA2 ECDs is proportional to color signal production.

Human c-Met-Flis-Fc ECD [2] = molecular target: T2, Human c-Met-Flis-Fc ECD (human); test: ELISA, coated ECD-Fc, antibody 0.002 ng/mL
T2 construct: also called human c-Met extracellular domain (ECD)-Fc-Flis fusion; Human cMet-ECD-Fc-Flis
T2 sequence (chain, as listed by the source limits assumed): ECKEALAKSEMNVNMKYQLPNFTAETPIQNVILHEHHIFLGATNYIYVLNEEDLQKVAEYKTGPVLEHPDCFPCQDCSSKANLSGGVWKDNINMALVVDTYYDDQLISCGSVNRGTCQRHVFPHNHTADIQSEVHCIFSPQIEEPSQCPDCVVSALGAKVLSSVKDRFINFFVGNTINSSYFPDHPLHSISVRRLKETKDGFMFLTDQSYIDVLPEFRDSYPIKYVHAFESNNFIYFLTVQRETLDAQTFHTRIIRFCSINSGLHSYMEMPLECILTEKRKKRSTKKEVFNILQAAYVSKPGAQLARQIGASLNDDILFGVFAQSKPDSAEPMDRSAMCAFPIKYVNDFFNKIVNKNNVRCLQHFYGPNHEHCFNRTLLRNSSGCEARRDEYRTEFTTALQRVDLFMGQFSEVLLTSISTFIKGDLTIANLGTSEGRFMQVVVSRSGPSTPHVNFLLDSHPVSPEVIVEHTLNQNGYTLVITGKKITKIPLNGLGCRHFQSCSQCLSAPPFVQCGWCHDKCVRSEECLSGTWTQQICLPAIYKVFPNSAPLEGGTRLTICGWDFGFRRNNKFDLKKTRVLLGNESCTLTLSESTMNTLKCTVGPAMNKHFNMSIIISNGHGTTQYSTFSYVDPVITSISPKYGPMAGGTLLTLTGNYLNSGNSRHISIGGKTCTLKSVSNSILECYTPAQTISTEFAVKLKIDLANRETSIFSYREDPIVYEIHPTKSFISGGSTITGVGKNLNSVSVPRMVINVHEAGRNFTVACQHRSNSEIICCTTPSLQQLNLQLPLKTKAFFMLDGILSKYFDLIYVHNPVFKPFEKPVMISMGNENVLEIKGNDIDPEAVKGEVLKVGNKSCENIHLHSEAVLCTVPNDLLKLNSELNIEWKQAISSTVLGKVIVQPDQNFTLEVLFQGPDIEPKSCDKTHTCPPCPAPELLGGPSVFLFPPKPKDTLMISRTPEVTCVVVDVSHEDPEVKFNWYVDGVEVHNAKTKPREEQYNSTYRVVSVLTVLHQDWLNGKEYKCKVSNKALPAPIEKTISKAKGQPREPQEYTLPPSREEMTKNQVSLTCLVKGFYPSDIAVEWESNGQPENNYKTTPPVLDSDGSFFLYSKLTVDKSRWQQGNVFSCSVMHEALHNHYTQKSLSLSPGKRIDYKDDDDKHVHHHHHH
Protocol: as §1

RON-ECD-Fc [3] = molecular target: T3, RON-ECD-Fc (human, UniProt Q04912 25-957); test: ELISA, coated ECD-Fc, antibody 0.002 ng/mL
T3 construct: extracellular domain; Bought reagent; not shown: Fc part of the bought fusion
T3 sequence (looked up): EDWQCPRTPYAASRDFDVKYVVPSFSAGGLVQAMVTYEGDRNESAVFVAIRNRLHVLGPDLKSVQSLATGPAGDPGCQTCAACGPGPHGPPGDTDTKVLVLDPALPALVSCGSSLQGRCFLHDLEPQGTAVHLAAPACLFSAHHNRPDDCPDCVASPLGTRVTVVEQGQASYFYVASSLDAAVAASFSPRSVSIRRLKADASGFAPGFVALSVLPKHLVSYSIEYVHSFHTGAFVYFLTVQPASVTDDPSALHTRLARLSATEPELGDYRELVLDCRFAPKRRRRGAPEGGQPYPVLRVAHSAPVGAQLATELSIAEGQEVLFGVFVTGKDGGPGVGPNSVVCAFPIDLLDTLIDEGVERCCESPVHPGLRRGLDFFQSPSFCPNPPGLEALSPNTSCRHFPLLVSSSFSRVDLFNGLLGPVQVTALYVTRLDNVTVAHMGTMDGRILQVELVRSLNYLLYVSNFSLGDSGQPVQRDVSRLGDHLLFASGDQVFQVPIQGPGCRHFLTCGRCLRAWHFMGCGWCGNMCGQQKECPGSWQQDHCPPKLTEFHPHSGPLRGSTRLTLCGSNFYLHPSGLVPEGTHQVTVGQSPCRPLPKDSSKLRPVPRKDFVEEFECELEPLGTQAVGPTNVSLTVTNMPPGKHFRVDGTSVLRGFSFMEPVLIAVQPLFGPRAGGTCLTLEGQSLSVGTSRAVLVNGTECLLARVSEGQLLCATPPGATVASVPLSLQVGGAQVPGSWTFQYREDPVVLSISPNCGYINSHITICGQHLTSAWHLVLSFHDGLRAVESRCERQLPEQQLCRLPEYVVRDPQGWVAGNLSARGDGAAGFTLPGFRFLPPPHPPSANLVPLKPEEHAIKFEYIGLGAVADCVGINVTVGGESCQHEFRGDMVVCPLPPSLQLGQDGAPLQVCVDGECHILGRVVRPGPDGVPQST
Protocol: as §1

PlexinA2-ECD-Fc [4] = molecular target: T1, PlexinA2-ECD-Fc; test: ELISA, coated ECD-Fc, antibody 0.002 ng/mL
Protocol: as §1

Human c-Met-Flis-Fc ECD [5] = molecular target: T2, Human c-Met-Flis-Fc ECD; test: ELISA, coated ECD-Fc, antibody 77.160 ng/mL
Protocol: as §1

RON-ECD-Fc [6] = molecular target: T3, RON-ECD-Fc; test: ELISA, coated ECD-Fc, antibody 77.160 ng/mL
Protocol: as §1

PlexinA2-ECD-Fc [7] = molecular target: T1, PlexinA2-ECD-Fc; test: ELISA, coated ECD-Fc, antibody 77.160 ng/mL
Protocol: as §1

- Average A450 nm (PlexinA2-ECD-Fc [1]): 0.095 A450 nm
- Average A450 nm (Human c-Met-Flis-Fc ECD [2]): 0.326 A450 nm
- Average A450 nm (RON-ECD-Fc [3]): 0.106 A450 nm
- Average A450 nm (PlexinA2-ECD-Fc [4]): 0.099 A450 nm
- Average A450 nm (Human c-Met-Flis-Fc ECD [5]): 4 A450 nm
- Average A450 nm (RON-ECD-Fc [6]): 0.09 A450 nm
- Average A450 nm (PlexinA2-ECD-Fc [7]): 0.078 A450 nm
B1: C8-6 (antibody, human IgG2, kappa, V domains shown)
VH: QVQLVQSGAEVKKPGASVKVSCKASGYTFTDYYMHWVRQAPGQGLEWMGRVNPNRGGTTYNQKFEGRVTMTTDTSTSTAYMELRSLRSDDTAVYYCARTNWLDYWGQGTTVTVSS
VL: DIQMTQSPSSLSASVGDRVTITCSVSSSVSSIYLHWYQQKPGKAPKLLIYSTSNLASGVPSRFSGSGSGTDFTLTISSLQPEDFATYYCIQYSGYPLTFGGGTKVEIKR
notes: Called IgG4, kappa; also called Mab C8-6
